# In US12366576B2, “Compositions, assays, and methods for direct modulation of fatty acid metabolism” (Dana-Farber Cancer Institute, Inc., priority 2016, dated 2025):
# Bridge positions count the residues as written; N and C are the ends. Square brackets hold non-standard residues; d marks the D form. Ends that are not written are not given here. S5 = C=CCCC[C@](C)(N)C(=O)O
# Biological target: T1, VLCAD (Mus musculus, UniProt P50544)
# T1 construct: As for native VLCAD from MEF lysates; endogenous in cells; host or cells: SV-40-transformed wild-type mouse embryonic fibroblasts (lysate)
# T1 sequence (P50544 42-656): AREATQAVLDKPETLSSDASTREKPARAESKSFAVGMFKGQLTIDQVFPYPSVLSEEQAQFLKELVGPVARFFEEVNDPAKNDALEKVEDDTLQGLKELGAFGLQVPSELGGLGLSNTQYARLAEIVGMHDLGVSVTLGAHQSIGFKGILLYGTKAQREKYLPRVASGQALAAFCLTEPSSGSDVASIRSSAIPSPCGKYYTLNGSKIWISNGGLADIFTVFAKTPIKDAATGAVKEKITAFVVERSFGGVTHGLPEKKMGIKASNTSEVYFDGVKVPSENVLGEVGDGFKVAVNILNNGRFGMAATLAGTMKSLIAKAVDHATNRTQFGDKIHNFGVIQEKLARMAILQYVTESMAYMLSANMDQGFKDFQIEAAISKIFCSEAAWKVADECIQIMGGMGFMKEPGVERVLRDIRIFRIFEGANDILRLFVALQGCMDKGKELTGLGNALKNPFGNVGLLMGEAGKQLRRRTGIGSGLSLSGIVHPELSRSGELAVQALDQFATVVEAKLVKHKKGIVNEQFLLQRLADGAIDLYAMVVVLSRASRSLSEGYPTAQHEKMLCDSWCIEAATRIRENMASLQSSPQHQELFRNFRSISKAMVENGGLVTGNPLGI
# Test: Biotinylated SAHB streptavidin pulldown from MEF lysates with MS-based protein identification
# Type: binding
# Conditions: wild-type MEF lysates; three biological replicates; thresholds fold change >8 and p<0.005 versus vehicle
# Method: An exploratory proteomics analysis was conducted to identify proteins that interact with the MCL-1 BH3 domain helix. An extensive library of MCL-1 stapled BH3 peptides (FIG. 2) was generated to both identify novel protein interactors by mass spectrometry and then deploy the stapled peptide constructs as novel probes to dissect and pharmacologically modulate the identified protein interactors and associated signaling pathways. As an example, an N-terminally biotinylated stapled peptide designed based on the sequence of MCL-1's BH3 domain (Btn-MCL-1 SAHBD), or vehicle, was incubated with wild-type mouse embryonic fibroblast (MEF) lysates, followed by high stringency streptavidin capture. To validate the proteomics workflow and ensure that Btn-MCL-1 SAHBD could, in fact, engage protein interactors in a lysate, eluates were first run on a gel for anti-MCL-1 Western analysis. […]
# Wild-type MEFs were trypsinized, washed once with cold PBS, and lysed on ice with NP-40 lysis buffer (50 mM Tris, pH 7.4, 150 mM NaCl, 0.5% (v/v) NP-40, complete protease inhibitor pellet (Roche)) using 1 ml of lysis buffer for every 10 million cells lysed. Cellular debris was pelleted at 14,000 g for 10 min at 4° C., and the supernatant was quantified using the BCA Protein Assay Kit (Thermo Fisher Scientific). […]
substance,measurement,value
"MCL-1 SAHBD: hydrocarbon-stapled peptide mimicking the MCL-1 BH3 domain (Stabilized Alpha-Helix of BCL-2 Domain), SEQ ID NO:19 (RKALETLRRVGDGV[S5]RNH[S5]TAF; staple 15-19)",VLCAD identified by MS in pulldown eluates,repeatedly identified as a high stringency interactor
